{"source": "paper PMC7897482", "about": "“Ecd promotes U5 snRNP maturation and Prp8 stability” (Nucleic Acids Research, 2021)", "binders": {"B1": {"name": "His::SmD3::HA (natural protein, Drosophila melanogaster, UniProt O44437 1-151, looked up)", "chain": "MSIGVPIKVLHEAEGHIITCETITGEVYRGKLIEAEDNMNCQMTQITVTYRDGRTANLENVYIRGSKIRFLILPDMLKNAPMFKKQTGKGLGGTAGRGKAAILRAQARGRGRGGPPGGGRGTGGPPGAPGGSGGRGAWQGGPTGGRGRGGL", "notes": "Sm ring protein SmD3, Drosophila melanogaster; cDNA cloned into Gateway pDEST17; also called His-tagged SmD3; source: E. coli BL21 Rosetta (DE3), purified (Ni Sepharose)"}}, "target": "T1, His::Ecd (Drosophila melanogaster, UniProt Q9W032 1-684)", "T1 construct": "Ecdysoneless (Ecd), Drosophila melanogaster; cDNA cloned into pET28b; also called His-tagged Ecd; source: E. coli BL21 Rosetta (DE3), purified (Ni Sepharose)", "T1 sequence (looked up)": "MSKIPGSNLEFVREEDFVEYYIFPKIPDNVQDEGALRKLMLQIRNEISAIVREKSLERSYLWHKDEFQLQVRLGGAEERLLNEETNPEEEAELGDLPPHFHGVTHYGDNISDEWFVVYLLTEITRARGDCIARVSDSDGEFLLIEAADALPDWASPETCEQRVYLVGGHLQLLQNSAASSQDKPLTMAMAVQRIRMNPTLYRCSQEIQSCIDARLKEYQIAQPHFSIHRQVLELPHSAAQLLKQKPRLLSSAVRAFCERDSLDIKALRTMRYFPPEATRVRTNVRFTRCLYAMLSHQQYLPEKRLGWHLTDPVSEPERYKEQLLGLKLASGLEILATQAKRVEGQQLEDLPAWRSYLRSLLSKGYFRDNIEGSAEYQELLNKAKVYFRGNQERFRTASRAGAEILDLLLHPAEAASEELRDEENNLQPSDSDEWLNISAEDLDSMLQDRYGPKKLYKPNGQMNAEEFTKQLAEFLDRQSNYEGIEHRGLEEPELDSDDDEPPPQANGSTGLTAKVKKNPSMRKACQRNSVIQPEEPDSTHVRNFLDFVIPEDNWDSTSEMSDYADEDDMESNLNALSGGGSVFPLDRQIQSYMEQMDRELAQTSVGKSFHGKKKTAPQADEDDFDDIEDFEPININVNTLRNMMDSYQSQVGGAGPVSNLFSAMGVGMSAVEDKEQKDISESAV", "experiment": "pull-down; 10 μg of purified His::Ecd and His::SmD3::HA incubated alone or together overnight at 4°C with protein G Dynabeads coupled to rat anti-Ecd N-term antibody; western blot", "conditions": "both partners purified"}
{"binder": "B1", "values": [{"measurement": "binding result", "result": "binds"}]}
